Assay results reported in patent publication US8691960B2, “Oxidoreductases for enantioselective reactions” (Duke University, priority 2012, dated 2014).
Where two headings read alike, the source gives them in different places. Each block holds one molecule with its values, some of them ahead of it.

Legend:
[1] = NADH oxidation rate of purified HIDH mutants with 2-oxoglutarate as substrate; type: biochemical; settings: ScHIDH-R143H
Description: (§1) NADH, 2-oxoadipate, 2-oxoglutarate, 2-heptandioate, and MgCl2 were from Sigma. Standard reaction mixes contained 15 mM 2-oxoadipate, 100 μM NADH, and a reaction buffer with final concentrations of 20 mM MgCl2 and 500 mM HEPES, pH 7.3. NADH oxidation was monitored by the decrease in fluorescence with excitation of 340 nm and emission of 450 nm on a PolarSTAR Optima plate reader (BMG Labtech). Fluorescence monitored reactions were carried out in 10-μL volumes in a 384-well black microplate (Greiner 788076) covered with clear optical film. The levels of fluorescence were converted to NADH concentrations based on standards of NADH in reaction buffer containing BSA. Reactions with high amounts of NADH were monitored by the UV absorbance of NADH at 340 nm in 40-μL reaction volumes in clear 96-well plates.
(§2) Reaction rates are NADH oxidation per unit time per unit of purified enzyme or crude lysate and 1 Unit (U) is 1 μmolNADH min^−1 mgenzyme^−1. Rates are initial rates calculated by least squares linear regression on the first 10 minutes of the reaction. For KM determination, concentrations of substrate/cofactors at least 5×-higher than the KM were used, while the species of interest was varied in concentration; substrate/cofactor concentrations: 500 μM NADH; 15 mM 2-oxoadipate; 20 mM MgCl2. […]

[2] = Kinetic characterization of ScHIDH mutants: KM 2-oxoadipate and Vmax; type: biochemical
Description: (§3) Reaction rates are NADH oxidation per unit time per unit of purified enzyme or crude lysate and 1 Unit (U) is 1 μmolNADH min^−1 mgenzyme^−1. Rates are initial rates calculated by least squares linear regression on the first 10 minutes of the reaction. For KM determination, concentrations of substrate/cofactors at least 5×-higher than the KM were used, while the species of interest was varied in concentration; substrate/cofactor concentrations: 500 μM NADH; 15 mM 2-oxoadipate; 20 mM MgCl2. Reported α-hydroxyadipate (2-hydroxy adpic acid) Vmax values were obtained from 2-oxoadipate KM determination experiments. Michaelis-Menten KM and Vmax parameters were estimated by fitting data to a curve using nonlinear regression in GraphPad Prism 5.0 (GraphPad Software, La Jolla, Calif.).
(§4) Assays were performed with 40 ng/μL enzyme, 15 mM 2-oxoadipate, 100 μM NADH, 20 mM MgCl2 and 100 mM HEPES, pH 7.3 in 10 or 20 μL volumes in 384-well black microplates. NADH concentration was monitored by the decrease in fluorescence (excitation wavelength: 340 nm; emission wavelength: 450 nm) on a fluorescent plate reader. The fluorescence intensities were converted to NADH concentrations based on NADH standards. Reactions with high amounts of NADH (>300 μM) were monitored by the UV absorbance of NADH at 340 nm in a 40 μL reaction volume in a clear 96-well plate on the same plate reader. Reactions with ScHIDH were carried out at 25° C. and reactions with TtHIDH were carried out at 45° C. Reported rates are initial rates from the first 10 minutes of reaction. For KM determination, concentrations of substrate at least 5×-higher than the KM were used (for NADH, 500 μM; for 2-oxoadipate, 15 mM) while the substrate of interest was varied in concentration. KM and Vmax were estimated by fitting data to equation (1) using nonlinear regression, where x is substrate concentration and y is the rate. y=Vmax·x/KM+x (1) Rate data for ScHIDH-R143C, -R143H, and -R143K are summarized in Table 3.

[3] = NADH oxidation rate of purified HIDH enzymes with 2-oxoadipate (fluorescence / UV 340 nm); type: biochemical; settings: for rate of NADH oxidation in the presence of 2-oxoadipate: 15 mM 2-oxoadipate, 100 μM NADH, 0.4 μg purified enzyme
Description: as §1, §3, §4

[4] = NADH oxidation with 2-oxoadipate plus CO2 added as NaHCO3 (reductive carboxylation); type: biochemical
Description: as §1, §3

[5] = Kinetic characterization of ScHIDH mutants: KM NADH; type: biochemical
Description: as §3, §4

[6] = Enantiospecific LC-MS/MS quantification of (R)- and (S)-2-hydroxyadipate product; type: biochemical; settings: for concentration of (R)-2-hydroxyadipate after 10 h: ScHIDH, initially 2 mM NADH and 2 mM 2-oxoadipate
Description: Quantitative, enantiospecific LC-MS/MS was performed based on the procedure described for 2-hydroxyglutarate. Jin et al., PLoS one 6, e16812: 1-8 (2011); Struys, et al., Clin. Chem. 50: 1391-1395 (2004). To 20 μL of reaction mix, 2 μL of 130 μg/mL of a racemic mixture of [3,3,4,4-^2H4]-2-hydroxyglutarate (internal standard) in water was added and the mixture dried by vacuum centrifuge (50° C., 15 min). The dry residue was treated with 50 mg/mL freshly prepared diacetyl-L-tartaric anhydride (Sigma) in dichloromethane/glacial acetic acid (4:1 by volume) and heated (75° C., 30 min). After drying (50° C., 15 min) the residue was dissolved in 100 μL of LC mobile phase A (see below) for analysis. An Agilent 1200 series HPLC (Santa Clara, Calif.) was used for liquid chromatography (LC) and a Sciex/Applied Biosystems API 3200 QTrap (Carlsbad, Calif.) was used for triple quadrupole mass spectrometry (MS/MS). Mobile phase A: water, 3% acetonitrile, 280 μL ammonium hydroxide (^˜25%), pH adjusted to 3.6 with formic acid (^˜98%). Mobile phase B: methanol. Analytical column: Kinetex C-18, 150×4.6 mm, 2.6 μm, and SafeGuard C-18 4×3 mm guard-column from Phenomenex (Torrance, Calif.). Column temperature: 45° C. Elution gradient at 1 mL/min flow rate: 0-1 min 0% B, 1-2 min 0-100% B, 2-3.5 min 100% B, 3.5-4 min 100-0% B, 4-10 min 0% B. Injection volume: 10 μL. Q1/Q3 (m/z) transitions were monitored: 377/161, 2-hydroxyadipate (2HA) and 367/151, [3,3,4,4-^2H4]-2-hydroxyglutarate (2HG-d4). To calibrate, 0, 0.16, 0.54, 1.8, 6, and 20 μg/mL 2-hydroxyadipate (Sigma), synthesized as described above, was analyzed in reaction buffer. (R)- and (S)-enantiomers were discriminated based on time of elution from the HPLC column, using the relative elution time for (R)-2-hydroxyglutarate compared to the racemic mixture of 2-hydroxyglutarate described previously to identify the (R)-2-hydroxyadipate enantiomer. Jin et al., PLoS one 6, e16812: 1-8 (2011). Standards were analyzed alongside experimental samples. Accuracy acceptance criteria were 85% for all but the lowest level (0.16 μg/mL, 80%).

[7] = Magnesium dependence of ScHIDH-R143H; type: biochemical
Description: as §4
ScHIDH-R143H activity was assayed at various MgCl2 concentrations under the standard reaction conditions described in Example 11. The rate is relative to the rate at 20 mM MgCl2. […]

[8] = NADH oxidation rate of purified ScHIDH-R143H with 2-oxoheptanedioic acid as substrate; type: biochemical
Description: as §1, §2

[9] = pH dependence of ScHIDH-R143H; type: biochemical
Description: as §4
ScHIDH-R143H activity was assayed in HEPES buffer at various pH under the standard reaction conditions described in Example 11, above. The rate is relative to the rate at pH 7.4. […]

[10] = literature (Lin et al. 2007); cited from earlier work
[11] = ScHIDH, literature; read-out: KM,HCO3, previous observation; cited from earlier work
[12] = literature; cited from earlier work

rate of NADH oxidation in the presence of 2-oxoadipate ([3]; ScHIDH): 0.0096±0.000014 U
decrease of NADH concentration after 10 h compared to a buffer control ([3]; ScHIDH, initially 2 mM NADH and 2 mM 2-oxoadipate, 10 h): 0.62 mM
NADH oxidation rate, reaction containing no substrate ([3]; ScHIDH-R143H, no substrate): < 0.001 U
B1: ScHIDH-R143H: Saccharomyces cerevisiae homoisocitrate dehydrogenase R143H mutant, an (R)-2-hydroxyadipate dehydrogenase (protein)
chain: MFRSVATRLSACRGLASNAARKSLTIGLIPGDGIGKEVIPAGKQVLENLNSKHGLSFNFIDLYAGFQTFQETGKALPDETVKVLKEQCQGALFGAVQSPTTKVEGYSSPIVALRREMGLFANVRPVKSVEGEKGKPIDMVIVHENTEDLYIKIEKTYIDKATGTRVADATKRISEIATRRIATIALDIALKRLQTRGQATLTVTHKSNVLSQSDGLFREICKEVYESNKDKYGQIKYNEQIVDSMVYRLFREPQCFDVIVAPNLYGDILSDGAAALVGSLGVVPSANVGPEIVIGEPCHGSAPDIAGKGIANPIATIRSTALMLEFLGHNEAAQDIYKAVDANLREGSIKTPDLGGKASTQQVVDDVLSRL
modifications: ScHIDH R143H polypeptide
notes: Saccharomyces cerevisiae homoisocitrate dehydrogenase R143H mutant, an (R)-2-hydroxyadipate dehydrogenase
NADH oxidation rate in the presence of 15 mM 2-oxoglutarate [1]: < 0.001 U
Km ([2]; Table 3, 40 ng/μL enzyme, 500 μM NADH, 20 mM MgCl2, pH 7.3, 25° C.): 2000 µM
Vmax ([2]; Table 3, from 2-oxoadipate KM experiments): 0.036 µmol/min/mg
Km ([2]; purified enzyme): 1400 ± 250 µM
maximal velocity (Vmax) ([2]; purified enzyme): 0.020±0.0027 U
stimulation by addition of NaHCO3 ([4]; up to 60 mM NaHCO3): not stimulated
Km ([5]; Table 3, 15 mM 2-oxoadipate, 20 mM MgCl2, pH 7.3, 25° C.): 88 µM
Km ([5]; purified enzyme): 85 ± 21 µM
concentration of (R)-2-hydroxyadipate after 10 h [6]: 0.97 mM
Enantiomeric Excess ([6]; Table 3, (R)-2-hydroxyadipate product): > 99.1%
Km ([7]; Table 3, read-out: KM MgCl2): 1200 µM
Km ([7]; various MgCl2 concentrations, standard conditions, read-out: KM for MgCl2): 1100 µM
NADH oxidation rate in the presence of 15 mM 2-oxoheptanedioic acid [8]: < 0.001 U
pH optimum ([9]; HEPES buffer at various pH, standard conditions): 7.4
pH optimum ([9]; Table 3, HEPES buffer): 7.4

rate of NADH oxidation in the presence of 2-oxoadipate ([3]; ScHIDH): < 0.001 U
B2: ScHIDH-WT: wild type Saccharomyces cerevisiae homoisocitrate dehydrogenase (encoded by LYS12) (protein, listed as Saccharomyces cerevisiae)
chain: MFRSVATRLSACRGLASNAARKSLTIGLIPGDGIGKEVIPAGKQVLENLNSKHGLSFNFIDLYAGFQTFQETGKALPDETVKVLKEQCQGALFGAVQSPTTKVEGYSSPIVALRREMGLFANVRPVKSVEGEKGKPIDMVIVRENTEDLYIKIEKTYIDKATGTRVADATKRISEIATRRIATIALDIALKRLQTRGQATLTVTHKSNVLSQSDGLFREICKEVYESNKDKYGQIKYNEQIVDSMVYRLFREPQCFDVIVAPNLYGDILSDGAAALVGSLGVVPSANVGPEIVIGEPCHGSAPDIAGKGIANPIATIRSTALMLEFLGHNEAAQDIYKAVDANLREGSIKTPDLGGKASTQQVVDDVLSRL
rate for homoisocitrate relative to isocitrate [10]: 216 fold
rate of NADH oxidation when CO2 was added as HCO3 ([4]; ScHIDH, 2-oxoadipate, NADH): 0.061±0.0090 U
Km ([4]; ScHIDH, read-out: KM,HCO3): 10000 ± 3700 µM
concentration of (R)-2-hydroxyadipate after 10 h [6]: no 2-hydroxyadipate accumulation was observed
Km [11]: 16300 µM

B3: TtHIDH-WT: wild type Thermus thermophilus homoisocitrate dehydrogenase (protein, listed as Thermus thermophilus)
chain: MAYRICLIEGDGIGHEVIPAARRVLEATGLPLEFVEAEAGWETFERRGTSVPEETVEKILSCHATLFGAATSPTRKVPGFFGAIRYLRRRLDLYANVRPAKSRPVPGSRPGVDLVIVRENTEGLYVEQERRYLDVAIADAVISKKASERIGRAALRIAEGRPRKTLHIAHKANVLPLTQGLFLDTVKEVAKDFPLVNVQDIIVDNCAMQLVMRPERFDVIVTTNLLGDILSDLAAGLVGGLGLAPSGNIGDTTAVFEPVHGSAPDIAGKGIANPTAAILSAAMMLDYLGEKEAAKRVEKAVDLVLERGPRTPDLGGDATTEAFTEAVVEALKSL
efficiency for 2-oxoglutarate relative to 2-oxoadipate [12]: 20 times
rate of NADH consumption with NaHCO3 added ([4]; TtHIDH, 2-oxoadipate and NADH, CO2 added as NaHCO3): 0.14±0.022 U
increase of (R)-2-hydroxyadipate concentration after 2 h ([6]; TtHIDH, 100 μM NADH, 15 mM 2-oxoadipate, 45° C., 2 h): not observed
